What is called Kd is the concentration at which binding is half-saturated. A high value points to a looser complex. Usually koff stands for the first-order rate constant of dissociation. The kon is a measure of how fast the partners come together. Low readings indicate slow association, high ones fast association.

Assay [1] addresses T1, human VISTA expressed on cells (human, UniProt Q9H7M9 33-295).
T1 sequence: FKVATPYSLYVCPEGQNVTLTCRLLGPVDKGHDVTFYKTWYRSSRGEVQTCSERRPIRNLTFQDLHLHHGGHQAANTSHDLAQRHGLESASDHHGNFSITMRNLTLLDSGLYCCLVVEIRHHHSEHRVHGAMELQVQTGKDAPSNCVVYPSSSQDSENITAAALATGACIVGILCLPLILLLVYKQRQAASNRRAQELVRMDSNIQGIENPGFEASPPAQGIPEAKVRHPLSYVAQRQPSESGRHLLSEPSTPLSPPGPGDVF
Briefly: cell-based or functional assay.

In assay [2] the target is T1, human VISTA expressed on cells. Kind of assay: cell-based or functional assay. This is another data set of the same source.
For assay [3] the target is unchanged. Kind of assay: cell-based or functional assay. The source holds these as a separate data set.
Assay [4] addresses T2, human VISTA extracellular domain (human, UniProt Q9H7M9 33-194).
T2 construct: also called SB0361 (human); human VISTA ECD
T2 sequence: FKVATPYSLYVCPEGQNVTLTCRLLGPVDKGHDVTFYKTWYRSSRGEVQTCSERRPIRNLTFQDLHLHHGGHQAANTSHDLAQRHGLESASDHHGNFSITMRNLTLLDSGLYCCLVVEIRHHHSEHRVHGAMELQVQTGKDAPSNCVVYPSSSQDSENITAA
Kind of assay: ProteOn SPR. The protocol: (§1) Antibodies were captured on ProteOn chips using anti-IgG Fc coated surfaces. […] The antigens were allowed to bind/associate to the antibody-coated chips for 4 minutes after which time dissociation was monitored for 30 minutes. Chips were regenerated with two treatments of 100 mM phosphoric acid for 18 seconds. All experiments were run at 25° C. and data was fit to 1:1 Langmuir binding model.

Assay [5] concerns the target T3, cynomolgus VISTA extracellular domain (cynomolgus, UniProt A0A7N9IB00 33-194).
T3 construct: extracellular domain; also called SB0361 (cyno); cyno VISTA ECD
T3 sequence: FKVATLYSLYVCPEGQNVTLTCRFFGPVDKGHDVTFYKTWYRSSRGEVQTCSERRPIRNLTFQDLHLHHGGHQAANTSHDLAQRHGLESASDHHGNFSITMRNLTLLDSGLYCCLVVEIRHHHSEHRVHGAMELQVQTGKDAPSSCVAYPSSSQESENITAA
Kind of assay: ProteOn SPR. The method, then: as §1

B1: VSTB50 (antibody, human IgG1, kappa, V domains shown)
VH: QVQLVQSGSELKKPGASVKVSCKASGYTFTNYGLNWVRQAPGQGLEWMGWINPYTGEPTYADDFKGRFVFSLDTSVSTAYLQICSLKAEDTAVYYCAREGYGNYIFPYWGQGTLVTVSS
VL: DIVMTQTPLSLSVTPGQPASISCRASESVDTYANSLMHWYLQKPGQPPQLLIYRASNLESGVPDRFSGSGSGTDFTLKISRVEAEDVGVYYCQQTNEDPRTFGQGTKLEIKR
Consider B1, for which the “IC50, IFN-γ in the SEB assay” value in assay [1] is 1.69 log10 of antibody concentration. In assay [2], the “IC50, IFN-γ in the MLR” value was 0.06 log10 of antibody concentration. Moreover, in assay [3], the “EC50 IFNγ production, MLR” value was determined as 1.14 mg/L.

B2: VSTB60 (antibody, human IgG1, kappa, V domains shown)
VH: QVQLVQSGSELKKPGASVKVSCKASGYTFTNYGMTWVRQAPGQGLEWMGWINTYTGESTYADDFKGRFVFSLDTSVSTAYLQICSLKAEDTAVYYCARDYYGIYVSAYWGQGTLVTVSS
VL: DIVMTQTPLSLSVTPGQPASISCRASESVDNYANSFMHWYLQKPGQSPQLLIYRASNLESGVPDRFSGSGSGTDFTLKISRVEAEDVGVYYCQQSHEDPYTFGQGTKLEIKR
Regarding B2, the “IC50, IFN-γ in the MLR” value in assay [2] was 0.4 log10 of antibody concentration. In addition, the “EC50 IFNγ production, MLR” value in assay [3] is 2.48 mg/L.

B3: VSTB74 (antibody, V domains shown)
VH: QMQLVQSGPEVKKPGTSVKVSCKASGYIFTDYNIDWVRQARGQRLEWIGDINPKYDSTRYNQKFKGRVTITRDMSTSTAYMELSSLRSEDTAVYYCAADGSSAMDYWGQGTTVTVSS
VL: DIVMTQSPDSLAVSLGERATINCKSSQSLLNSGHQKNYLAWYQQKPGQPPKLLIYGASTRESGVPDRFSGSGSGTDFTLTISSLQAEDVAVYYCQNDHRYPLTFGQGTKLEIKR
In assay [4], B3 had a Kd of 0.562 nM, a koff of 0.000223 s⁻¹ and a kon of 397000 M⁻¹ s⁻¹. In addition, in assay [5], the Kd was 0.347 nM, the koff amounted to 0.000144 s⁻¹ and the kon was 415000 M⁻¹ s⁻¹.

B4: VSTB103 (antibody, V domains shown)
VH: EVQLVQSGAEVKKPGESLKISCKGSGYSFTSYWIGWVRQMPGKGLEWMGIIYPGDSDTRYSPSFQGQVTISADKSISTAYLQWSSLKASDTAMYYCARDDALYGGYYLDYWGQGTLVTVSS
VL: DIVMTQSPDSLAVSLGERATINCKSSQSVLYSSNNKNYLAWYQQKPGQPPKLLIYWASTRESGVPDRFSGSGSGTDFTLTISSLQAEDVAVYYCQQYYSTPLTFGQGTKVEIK
Consider B4, for which, in assay [4], the Kd was found to be 0.636 nM, the koff was 0.000336 s⁻¹ and the kon came out at 528000 M⁻¹ s⁻¹. Further, in assay [5], binding was characterised by a dissociation constant (Kd) of 0.302 nM, the koff was determined as 0.00018 s⁻¹ and the kon stood at 598000 M⁻¹ s⁻¹.

B5: VSTB116 (antibody, human IgG1, kappa, V domains shown)
VH: QVQLVQSGAEVKKPGSSVKVSCKASGGTFSSYAISWVRQAPGQGLEWMGGIIPIFGTANYAQKFQGRVTITADESTSTAYMELSSLRSEDTAVYYCARSSYGWSYEFDYWGQGTLVTVSS
VL: DIQMTQSPSSLSASVGDRVTITCRASQSINTNLNWYQQKPGKAPKLLIYAASSLQSGVPSRFSGSGSGTDFTLTISSLQPEDFATYYCQQARDTPITFGQGTKVEIKR
As to B5, the “IC50, IFN-γ in the SEB assay” value in assay [1] was -0.35 log10 of antibody concentration. Besides, in assay [2], the “IC50, IFN-γ in the MLR” value was -0.16 log10 of antibody concentration. Moreover, the “EC50 IFNγ production, MLR” value in assay [3] amounted to 0.69 mg/L.

B6: VSTB95 (antibody, human IgG1, kappa, V domains shown)
VH: EVQLVESGGGLVQPGGSLRLSCAASGFTFRNYGMSWVRQAPGKGLEWVASIISGGSYTYYPDSVKGRFTISRDNAKNSLYLQMNSLRAEDTAVYYCARIYDHDGDYYAMDYWGQGTTVTVSS
VL: DIVMTQSPLSLPVTPGEPASISCRSSQSIVHSNGNTYLEWYLQKPGQSPQLLIYKVSNRFSGVPDRFSGSGSGTDFTLKISRVEAEDVGVYYCFQGSHVPWTFGQGTKLEIKR
Take B6: the “IC50, IFN-γ in the SEB assay” value in assay [1] was 0.05 log10 of antibody concentration. Further, the “IC50, IFN-γ in the MLR” value in assay [2] was 0.22 log10 of antibody concentration. Also, the “EC50 IFNγ production, MLR” value in assay [3] is 1.67 mg/L.

B7: VSTB53 (antibody, human IgG1, kappa, V domains shown)
VH: QVQLVQSGAEVKKPGASVKVSCKASGYTFTHYTIHWVRQAPGQGLEWMGYIIPSSGYSEYNQKFKDRVTMTRDTSTSTVYMELSSLRSEDTAVYYCARGAYDDYYDYYAMDYWGQGTLVTVSS
VL: DIVMTQSPLSLPVTPGEPASISCRSSQTIVHSNGNTYLEWYLQKPGQSPQLLIYKVSNRFSGVPDRFSGSGSGTDFTLKISRVEAEDVGVYYCFQASHVPWTFGQGTKLEIKR
As for B7, in assay [1], the “IC50, IFN-γ in the SEB assay” value is -1.05 log10 of antibody concentration. In addition, the “IC50, IFN-γ in the MLR” value in assay [2] is 0.27 log10 of antibody concentration. Besides, the “EC50 IFNγ production, MLR” value in assay [3] was determined as 1.88 mg/L.

Values taken from patent publication US20210171640A1 (Janssen / Centocor, published 2021).
